According to patent publication US20210292393A1 (published 2021):

How the values were obtained:
[1] = biological target: T1, SARS-CoV-2 full length spike protein, V483A mutant (SARS-CoV-2, UniProt P0DTC2 14-1273)
[2] = biological target: T2, SARS-CoV-2 full length spike protein, V367F mutant (SARS-CoV-2, UniProt P0DTC2 14-1273); assay: flow cytometry, CHO cells expressing full-length spike V367F
T2 construct: also called SARS-CoV-2 V367F mutant

[3] = biological target: T3, SARS-CoV-2 full length spike protein, D614G mutant (SARS-CoV-2, UniProt P0DTC2 14-1273); assay: flow cytometry, CHO cells expressing full-length spike D614G (printed D641G)
T3 construct: also called SARS-CoV-2 D641G mutant

[4] = biological target: T4, SARS-CoV-2 full length spike protein, V483A mutant, expressed on CHO cells (SARS-CoV-2, UniProt P0DTC2 14-1273)
[5] = biological target: SARS-CoV-2 full length spike protein, D614G mutant, expressed on CHO cells (SARS-CoV-2, UniProt P0DTC2 14-1273); assay: flow cytometry on CHO cells expressing spike D614G
[6] = biological target: T5, SARS-CoV-2 full length spike protein, V367F mutant, expressed on CHO cells (SARS-CoV-2, UniProt P0DTC2 14-1273); assay: flow cytometry on CHO cells expressing spike V367F
T5 construct: also called SARS-CoV-2 V367F mutant

[7] = biological target: T4, SARS-CoV-2 full length spike protein, …; assay: flow cytometry on CHO cells expressing spike V483A
[8] = biological target: T6, SARS-CoV-2 full length spike protein, V483A mutant (SARS-CoV-2, UniProt P0DTC2 14-1273); remark: listed apart in the source
[9] = biological target: SARS-CoV-2 full length spike protein, D614G mutant (SARS-CoV-2, UniProt P0DTC2 14-1273); assay: flow cytometry, CHO cells expressing full-length spike D614G
[10] = biological target: T7, SARS-CoV-2 full length spike protein, V367F mutant (SARS-CoV-2, UniProt P0DTC2 14-1273); assay: flow cytometry, CHO cells expressing full-length spike V367F; remark: listed apart in the source
T7 construct: also called SARS-CoV-2 V367F mutant

[11] = biological target: T6, SARS-CoV-2 full length spike protein, …; assay: flow cytometry, CHO cells expressing full-length spike V483A
[12] = biological target: SARS-CoV-2 full length spike protein, V367F mutant (SARS-CoV-2, UniProt P0DTC2 14-1273)
[13] = biological target: SARS-CoV-2 full length spike protein, D614G mutant (SARS-CoV-2, UniProt P0DTC2 14-1273)
[14] = biological target: T1, SARS-CoV-2 full length spike protein, …; assay: flow cytometry, CHO cells expressing full-length spike V483A; remark: listed apart in the source

B1: antibody 296 (antibody, V domains shown)
VH: EVQLVESGGGLVQPGGSLRLSCAGSGFTLSNYWMTWVRQAPGKGLEWVANINQDASRKYYGDSVKGRFSVSRDNAKNSLYLQMNSLTAEDTGFYYCVREELPSTPGSTWGQGTLVTVSS
VL: QSALTQPASVSGSPGQSITISCTGTSSDIGGYNHVSWYQQHPGKAPKLMIYGVSNRPSGVSDRFSGSKSDNTASLTISGLQAEDEADYYCSSPTSRGNKVFGTGTKVTVL
**Q.** What does the source list for B1?
**A.** median fluorescence intensity, fold over isotype control [1]: 1.27 fold over isotype; binding result [2]: no binding; binding result [3]: no binding

B2: antibody 377 (antibody, V domains shown)
VH: EVQLVESGGGLVKPGGSLRLSCATSGFTFRTYSMNWVRQAPGKGLEWVSSITTSRNYIYYADSVRGRFTISGDNANNSLYLQMNSLRAEDTAVYYCARVRFVRDTRKPYYFDFWGQGTLVTVSS
VL: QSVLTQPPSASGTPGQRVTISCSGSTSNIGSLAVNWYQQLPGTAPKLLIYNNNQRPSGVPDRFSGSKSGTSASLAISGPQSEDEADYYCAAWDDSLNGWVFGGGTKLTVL
**Q.** With B2 as the binder, how does the “median fluorescence fold over isotype control” value [4] read?
**A.** 1.09 fold over isotype

**Q.** Does B2 bind [5]?
**A.** no binding

**Q.** Does B2 bind [6]?
**A.** no binding

**Q.** Does B2 bind [7]?
**A.** no binding

B3: antibody 450 (antibody, V domains shown)
VH: EVQLVESGGGLVQPGGSLRLSCAASEFTFSSYWMSWVRQAPGKGLEWVANIKQDGSEKYYVDSVKGRFTISRDNAKNSLYLQMNSLRAEDTAVYYCARVGEYSGYDLFFDYWGQGTLVTVSS
VL: NFMLTQPHSVSESPGKTVTISYTGSSGSIASNYVQWYQQRPGSAPTTVIYEDNQRPSGVPDRFSGSIDSSSNSASLTISGLKTEDEADYYCQSYDSSNQGVFGGGTKLTVL
**Q.** With B3 as the binder, how does the “median fluorescence fold over isotype control” value [8] read?
**A.** 1.27 fold over isotype

**Q.** Does B3 bind [9]?
**A.** no binding

**Q.** Does B3 bind [10]?
**A.** no binding

**Q.** Does B3 bind [11]?
**A.** no binding

B4: antibody 585 (antibody, V domains shown)
VH: QVQLVESGGGVVQPGRSLRLSCAASGFTFATYAMHWVRQAPGKGLEWVALISHDGSNKHYADSVKGRFTISRDNSKKTLYLQMNSLRAEGTAIYYCARESLEAAAPPFDYWGQGTLVTVSS
VL: SYELTQPPSVSVSPGQTATIICSGDKLGEKYASWYQQKPGQSPALVIYQDRKRPSGIPERFSGSNSGNTATLTISGTQAMDEADYYCQAWDSSNSVVFGGGTKLTVP
**Q.** B4 was tested. Which “median fluorescence intensity, fold over isotype control” value [12] did it give?
**A.** 33 fold over isotype

**Q.** And the “median fluorescence intensity, fold over isotype control” value [13]?
**A.** 7.49 fold over isotype

B5: antibody 432 (antibody, V domains shown)
VH: QVQLQESGPGLVKPSQTLSLTCTVSGGSISSGGYYWNWIRQHPGKGLEWIGYIYDSGSTYYNPSLKSRLTLSIDTSQNQFSLRRTSVTAADTAVYYCARGRQYDYDRTGLQYYFDYWGQGTLVTVSS
VL: EIVLTQSPGTLSLSPGERATLSCRASQSFSSSYLAWYQQKPGQAPRLLIYGASSRATGIPDRFSGSGSGTDFTLTISRLEPEDFAVYYCQQYGTSSLTFGGGTKVEIK
**Q.** Does B5 bind [10]?
**A.** no binding

**Q.** Does B5 bind [11]?
**A.** no binding

B6: antibody 290 (antibody, V domains shown)
VH: QVHLVQSGAEVKKPGASVKVSCAASGYTFNNYGVSWVRQAPGQGLEWMGWISASNGNTKYAQNLQGRVTMTTDTSTSTAYMELRSLRSDDTAVYYCARDLVGPTAPNYYYGMDVWGQGTAVTVSS
VL: QSVLTQPPSVSGAPGQRVTISCTGSSSSIGAGYDVHWYQQLPGTAPKLLIYANSNRPSGVPDRLSGSKSGTSASLAITGLQAEDEADYYCQSYDSSLSGYVFGTGTKVTVL
**Q.** Does B6 bind [14]?
**A.** no binding
